From the supplement of paper PMC12764529
± gives the half width of the 95% confidence interval.

Key:
[1] = folding stability dG unfold from trypsin proteolysis; higher = more stable
Summary of the method: (§1)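 Designed mini-proteins with no cysteine and under 80 residues were kept only if AlphaFold2 dimer inter-PAE was above 15. In a PA-tagged cDNA display construct, they were digested with trypsin and chymotrypsin and then sequenced. K50 was inferred by Bayesian fitting of counts, and unfolding free energy was derived per protease or combined against a sequence-predicted unfolded-state K50 and a shared folded-state K50.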

[2] = folding stability dG unfold from chymotrypsin proteolysis; higher = more stable
Summary of the method: as §1

[3] = folding stability dG unfold (combined trypsin and chymotrypsin); higher = more stable
Summary of the method: as §1

| Sequence | folding stability dG unfold [1] | folding stability dG unfold [2] | folding stability dG unfold [3] |
| --- | --- | --- | --- |
| SAGGHTIWIPFDSPEQAKELANEIARELNDHGLKVKVKVHPDDGWIKVKVDMRNNDKEKKIKIWFPFPSAGG [r13_641_TrROS] | 3.53 ± 0.418 kJ/mol | 10.2 ± 0.753 kJ/mol | 7.45 ± 1.51 kJ/mol |
| SAGGMEPPPMLLLVIEIENEDGEKLRIVVPLEDLEEVLKALGLSKEEVRIKKIEVVPLTDEQLKELLESAGG [r13_850_TrROS_Hall] | 14.4 ± 1.46 kJ/mol | 14.9 ± 1.05 kJ/mol | 13.9 ± 1.17 kJ/mol |
| SAGGSAGGSAGGMMVNLKVTREKLPNGKYRVTFTLPNGEEVVVEVESEEEAEAAAKEIAASAGGSAGGSAGG [r11_955_JUSTAS] | 13.4 ± 0.222 kJ/mol | 17.7 ± 0.218 kJ/mol | 16.5 ± 0.351 kJ/mol |
| SPWYVRIKLEYPGKEKRIMIPPDESISQIKDNIRDFAREMGLEEPPLDDFKIEDVEVFPDENGMVSIEIKSA [r9_1053_TrROS] | 2.54 ± 1.34 kJ/mol | 4.79 ± 0.879 kJ/mol | 3.43 ± 1.72 kJ/mol |
| SAGGSAGGSAGGITPEYVERARKEAQDQYPPGKEREIIIRNPDNGKEITIRYTPDKIEIMSAGGSAGGSAGG [r7_45_TrROS] | 0.076 ± 0.502 kJ/mol | -1.21 ± 0.669 kJ/mol | -0.616 ± 1 kJ/mol |
| SAGGSATKELVLEIAEEIAPRFQKEGWPIKRVTVKVVRTPDGQVTIPVRIRFPDGKPIMQWNITIPSAGGSA [r15_232_TrROS] | 4.33 ± 0.23 kJ/mol | 0.0346 ± 1.51 kJ/mol | 3.26 ± 0.711 kJ/mol |
| SAGGNKNGKPKPTVPFKIMVMKPKPRRNDNNGQEEPRYDMRPVEIEFPLGEEIDLEEALENPDYIFIMSAGG [r13_753_TrROS] | -0.0737 ± 0.586 kJ/mol | 1.16 ± 0.753 kJ/mol | 0.831 ± 0.628 kJ/mol |
| SAGGSAGGSPVPVKVEKKPTKENKELIITYYPDGKVRVTTYTYDENGNKISEKEEIIPKSEVKLSAGGSAGG [r6_579_JUSTAS] | 3.39 ± 0.134 kJ/mol | 6.6 ± 0.134 kJ/mol | 5.75 ± 0.255 kJ/mol |
| SAGGSAGGSAGGMVTTLEVTVSPDGVITVTTVTTDAAGTPVTTTTTTTVLGPGGPVLAVSAGGSAGGSAGGS [r10_484_JUSTAS] | 8.6 ± 0.544 kJ/mol | 8.38 ± 0.184 kJ/mol | 8.51 ± 0.502 kJ/mol |
| SMKIKIKVETNPNGEKKIEIEIELKEEDIEFDEGMTLEERKEKLRELAEELAKKLKEEGKEVKIVEIEVESA [r9_751_TrROS_Hall] | 7.51 ± 0.28 kJ/mol | 9.48 ± 0.201 kJ/mol | 8.8 ± 0.711 kJ/mol |
| SAGGSAGGSAGMKTTYDPDTNKLSITLPNGTVATYYLGTGVIEIPDEVSSKEDIKVEKAASAGGSAGGSAGG [r17_174_JUSTAS] | 1.34 ± 0.46 kJ/mol | 4 ± 0.711 kJ/mol | 3.3 ± 0.628 kJ/mol |
| SAGGSAMNPKLEALPEVEITEEKTEEYKTAENKKLLVKEYKSNAEPGKTYKVIYDPETGKVLSVEESAGGSA [r15_66_JUSTAS] | 0.399 ± 0.247 kJ/mol | 4.61 ± 0.46 kJ/mol | 3.08 ± 0.418 kJ/mol |
| SAGGSAGGSAGGSMVVEYDPETGVRTTTVALPSDSVEVTTEKIDPATGEVVETVTELAASAGGSAGGSAGGS [r4_415_JUSTAS] | -0.44 ± 0.113 kJ/mol | 2.65 ± 0.201 kJ/mol | 1.5 ± 0.36 kJ/mol |
| SAGGSAGGGKVKVELEPLEDDSYRLRITVELPDGSKIEKPVILPSNVPPELSAEKVAEEILKKESAGGSAGG [r6_895_TrMRF] | 1.58 ± 0.372 kJ/mol | -0.487 ± 1.42 kJ/mol | 0.952 ± 1 kJ/mol |
| SAEKPPVVTLEIEIEIVVKDENGKTHKRKFRLTVTFYPDGTVEISIYDENGELIETITLPPGATLEELLSAG [r14_559_TrROS_Hall] | 9.46 ± 0.347 kJ/mol | 16.7 ± 0.628 kJ/mol | 15.1 ± 0.46 kJ/mol |
| SAGGSAGGSKNMVMVEIPFEHKVKQPDPPDGKWRQHEHKPTIPYMIPPEDAEELLNSPALKKISAGGSAGGS [r12_1015_TrROS] | 0.579 ± 0.837 kJ/mol | 0.0449 ± 0.879 kJ/mol | 0.18 ± 0.795 kJ/mol |
| SAGKPKVKVETVTIEVDGKKIKIEVVELENGEKLVRVEVFDENGELVETKTVTLEELKKLLEKAGIEVSAGG [r19_90_TrROS_Hall] | 6.86 ± 0.418 kJ/mol | 9.18 ± 0.669 kJ/mol | 7.71 ± 1.17 kJ/mol |
| SAGGSAGGSEVLEVVLPRPDGRLVLLRVDPEGRLALVVFPDGSVRVFEVESPEEAVQRVLDAESAGGSAGGS [r12_866_TrMRF] | 8.01 ± 0.226 kJ/mol | 10.9 ± 0.142 kJ/mol | 10.1 ± 0.293 kJ/mol |
| SAGKVKLTIMIHPMRKNGKPRYYVMVKIEIPGGPKAEIMFPFDSPEQAKNLLEDLGLKVEPEDISIMRWSAG [r5_233_TrROS] | 7.91 ± 0.092 kJ/mol | 8.13 ± 0.502 kJ/mol | 8.11 ± 0.213 kJ/mol |
| SAGGSKFEVEKLPDNTYRFKVPNENGETLEITVEKLPDGAILVTHPSNPKPVLFPASTTIEDLLKKSAGGSA [r2_338_TrMRF] | 5.42 ± 0.121 kJ/mol | 9.29 ± 0.121 kJ/mol | 8.18 ± 0.134 kJ/mol |
| SAGGSAGGSAGSFVKGGTVYEIYKNPNTKKYTIVATPKNGKKYVFTFDSPEEAEKALKASSAGGSAGGSAGG [r11_238_TrMRF] | 6.92 ± 0.151 kJ/mol | 11.1 ± 0.192 kJ/mol | 9.95 ± 0.272 kJ/mol |
